Assays:
[1] = system: p53 levels in MCF-7 cells; assay: Immunoblot of p53 and PARP after klotho protein over-expression; assay type: cell-based, human
Protocol: (§1) For breast cells, cells were harvested and lysed for total protein extraction in RIPA buffer (50 mM Tris-Cl pH 7.4, 150 mM NaCl, 1% NP-40, 0.25% Na-deoxycholate, 1 mM EDTA, 1 mM NaF) together with a protease inhibitor cocktail (Sigma). 50 μg protein extracts were loaded on 10% polyacrylamide gels, separated electrophoretically and blotted from the gel onto nitrocellulose membrane (Schleicher & Schuell Bioscience GmbH, Dassel, D E). The membranes were then immunoblotted with the indicated antibodies.
(§2) In fibroblasts, klotho protein reduces senescence through down-regulation of p53 (de Oliveira, 2006). The effects of klotho protein on p53 levels in MCF-7 breast cancer cells and HEK 293 were therefore analyzed.

p53 levels in HEK 293 = assay: as above; assay type: cell-based, human
Protocol: as §1, §2

[2] = system: human embryonic kidney (HEK) 293 cells; assay: Colony formation assay after transfection with klotho protein expression vector; assay type: cell-based; details: transfected pcDNA3-HA-KL vs empty vector
Protocol: (§3) Two days following transfection with the indicated plasmids, G418 (750 μg/ml) was added to the culture media; and at day 14, the cells were stained using gentian violet. Untransfected cells were treated similarly, and all died within the 2 weeks of culture in the selection media. Quantification of the results was performed using AlphaImager 2000 (Alpha Innotech, CA).
(§4) The effect of klotho protein on growth of breast cancer cells was first assessed using colony formation assays. MCF-7, MDA-MB-231 and the non-cancerous human embryonic kidney (HEK) 293 cells were transfected with either a HA-tagged klotho protein expression vector (pcDNA3-HI-A-KL) or an empty vector (pcDNA3). Transfected cells were cultured in media containing G418 for two weeks and stained to determine the number of surviving colonies.

[3] = system: MCF-7 and MDA-MB-231 clones; assay: MTT proliferation assay of clones stably expressing klotho protein; assay type: cell-based, human; details: stable klotho protein-expressing clones vs pcDNA3 controls; 24-72 h
Protocol: The medium was aspirated, and the cells were dissolved by dimethyl sulfoxide (DMSO).
In order to assess the long-term effects of klotho protein expression, MCF-7 and MDA-MB-231 clones, which stably expressed either pcDNA3 or pcDNA3-HA-KL, were generated. Proliferation was evaluated by 3-(4,5-dimethylthiazol-2-yl)-2,5-diphenyltetrazolium bromide (MTT) assay after seeding for 24-72 h.

[4] = system: Colo357, MiaPaCa2, and Panc1; assay: Colony formation assay of pancreatic carcinoma cell lines transfected with klotho protein vector; assay type: cell-based, human; details: pcDNA3-HA-KL vs empty vector; G418 two weeks
Protocol: Two days following transfection with the indicated plasmids, G418 (900 μg/ml for Panc1, 1000 μg/ml for MiaPaCa2 and 750 μg/ml for Colo357, HEK-293 and BON1) was added to the culture media. At day 14, cells were stained using crystal violet (Sigma-Aldrich) and quantitated as described (Wolf et al., 2008).
For the colony formation assay, pancreatic carcinoma cell lines Colo357, MiaPaCa2, and Panc1 were transfected with either a HA-tagged klotho protein expression vector (pcDNA3-HA-KL) or an empty vector (pcDNA3). Transfected cells were cultured in media containing G418 for two weeks. Colonies were stained with crystal violet and photographed.

MCF-7 = assay: Colony formation assay after transfection with klotho protein expression vector; assay type: cell-based, human; details: transfected pcDNA3-HA-KL vs empty vector; G418 two weeks; p<0.0005
Protocol: as §3, §4

MDA-MB-231 = assay: as above; assay type: cell-based, human; details: transfected pcDNA3-HA-KL vs empty vector; G418 two weeks; p<0.0005
Protocol: as §3, §4

IGF-1R = molecular target: T1, IGF-1R (Homo sapiens, UniProt P08069); assay: Co-immunoprecipitation of HA-klotho protein and IGF-1R in MCF-7 cells; assay type: binding; details: MCF-7 cells expressing HA-klotho protein
T1 construct: endogenous in cells; host or cells: MCF-7 cells expressing HA-klotho (stably or transiently)
T1 sequence (P08069 31-1367): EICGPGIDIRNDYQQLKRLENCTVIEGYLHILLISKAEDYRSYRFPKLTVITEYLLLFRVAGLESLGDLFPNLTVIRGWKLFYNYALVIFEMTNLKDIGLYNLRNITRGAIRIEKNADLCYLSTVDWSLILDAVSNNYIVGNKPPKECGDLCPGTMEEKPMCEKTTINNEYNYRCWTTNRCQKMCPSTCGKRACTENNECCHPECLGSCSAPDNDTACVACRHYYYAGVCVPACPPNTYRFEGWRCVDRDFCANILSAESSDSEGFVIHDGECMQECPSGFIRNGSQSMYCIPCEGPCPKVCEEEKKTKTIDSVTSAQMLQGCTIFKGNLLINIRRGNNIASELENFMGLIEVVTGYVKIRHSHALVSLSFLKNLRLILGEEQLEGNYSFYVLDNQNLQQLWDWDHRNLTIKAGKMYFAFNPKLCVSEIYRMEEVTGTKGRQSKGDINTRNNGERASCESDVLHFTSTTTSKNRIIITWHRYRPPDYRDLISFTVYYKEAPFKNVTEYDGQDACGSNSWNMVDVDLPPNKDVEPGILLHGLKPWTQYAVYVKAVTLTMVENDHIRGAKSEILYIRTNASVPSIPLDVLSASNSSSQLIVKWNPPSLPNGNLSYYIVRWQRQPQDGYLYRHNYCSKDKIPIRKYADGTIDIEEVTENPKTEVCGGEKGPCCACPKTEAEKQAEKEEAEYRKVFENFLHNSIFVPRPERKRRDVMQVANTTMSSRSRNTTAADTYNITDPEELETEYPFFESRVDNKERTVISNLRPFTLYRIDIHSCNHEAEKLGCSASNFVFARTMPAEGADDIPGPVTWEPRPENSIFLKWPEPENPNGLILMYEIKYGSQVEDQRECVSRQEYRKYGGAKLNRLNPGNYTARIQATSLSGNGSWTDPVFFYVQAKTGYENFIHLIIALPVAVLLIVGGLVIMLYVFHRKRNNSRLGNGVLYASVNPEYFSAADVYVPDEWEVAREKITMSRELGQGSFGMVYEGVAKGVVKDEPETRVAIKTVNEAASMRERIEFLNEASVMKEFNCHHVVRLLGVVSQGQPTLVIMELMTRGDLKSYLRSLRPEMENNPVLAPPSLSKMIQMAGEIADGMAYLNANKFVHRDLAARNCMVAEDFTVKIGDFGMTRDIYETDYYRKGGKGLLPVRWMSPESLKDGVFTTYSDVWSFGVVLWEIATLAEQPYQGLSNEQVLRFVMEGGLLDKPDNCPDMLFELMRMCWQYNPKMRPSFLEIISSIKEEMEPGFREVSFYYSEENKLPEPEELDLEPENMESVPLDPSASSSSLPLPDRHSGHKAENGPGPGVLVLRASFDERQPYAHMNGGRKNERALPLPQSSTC
Protocol: Cells were harvested as for Western blot, and 400 μg protein lysate were incubated with IgG-Sepharose (Sigma) or protein A/G (Pierce, Rockford, Ill.) beads at 4° C. for 1 h to eliminate non-specifically bound proteins. These beads were subsequently used as a negative control. The supernatants were then incubated for 4 hours with either 2 μg anti-HA antibody (Sigma) or 2 μl of anti-IGF-1β-R (Santa Cruz Biotechnology) and IgG-Sepharose or protein A/G (Pierce, Rockford, Ill.), respectively, was added. Following an overnight incubation, the beads were washed 6 times in RIPA buffer and the immunoprecipitated materials were separated by SDS-PAGE and detected by Western blotting.
As klotho protein can bind FGFR and other membrane proteins, binding of klotho protein to the IGF-1R was examined. Co-immunoprecipitation assays were conducted using MCF-7 cells either stably (FIG. 10) or transiently (data not shown) expressing HA-klotho protein. HA-klotho protein was detected by Western blotting following immunoprecipitation of the IGF-1R, and the IGF-1R was detected following immunoprecipitation using HA-directed antibody.

[5] = system: IGF-1 pathway in MCF-7 cells; assay: IGF-1 pathway activation (Western blotting) after klotho protein over-expression; assay type: cell-based, human; details: IGF-1 12.5 nM, 15 min
Protocol: as §1
(§5) MDA-MB-231 cells, which express lower levels of these receptors, were also examined. HEK 293 cells, whose growth is not dependent on the IGF-1 pathway (El-Shewy et al., 2007) and is not inhibited by klotho protein, served as control.
In order to elucidate klotho protein activity as an inhibitor of […] activation, MCF-7 cells were transfected with either pcDNA3-HA-KL or an empty vector, starved for 48 hours, treated with IGF-1 for the indicated times and doses, and analyzed using Western blotting for the level of expression and phosphorylation of IGF-1R.
(§6) In further experiments, MCF-7, MDA-MB-231 or HEK-293 cells were transfected with either pcDNA3-HA-KL or empty vector and treated with IGF-1 (12.5 nM, 15 min).

Panc1 cells = assay: In vivo Panc1 tumors in athymic nude mice treated with soluble klotho protein; details: 200 ng/day, 500 ng/day daily intra-peritoneal, up to 4 weeks
Protocol: Panc1 cells were harvested, washed twice with sterile PBS, counted and resuspended in Matrigel (BD Biosciences). Six-week-old female athymic nude mice were injected subcutaneously in both flanks with cells at a density of 0.5×10^6 cells/100 μl. The mice were treated with daily intra-peritoneal injections of either soluble klotho protein (prepared as described above): 200 ng/day, 500 ng/day, or vehicle control (saline). Five mice were used in each group. Tumor size was measured weekly with a linear caliper for up to 4 weeks, and tumor volume was estimated using the equation V=(a×b^2)×0.5236, where “a” is the larger dimension and “b” the perpendicular diameter.

[6] = system: IGF-1 pathway in HEK 293 cells; assay: IGF-1 pathway activation (Western blotting) after klotho protein over-expression; assay type: cell-based, human; details: IGF-1 12.5 nM, 15 min
Protocol: as §1, §5, §6

[7] = system: IGF-1 pathway in MDA-MB-231 cells; assay: as above; assay type: cell-based, human; details: IGF-1 12.5 nM, 15 min, data not shown
Protocol: as §1, §5, §6

B1: klotho protein: full length mouse Klotho (SEQ ID NO. 3) over-expressed in cells from HA-tagged expression vector pcDNA3-HA-KL (protein)
chain: MLARAPPRRPPRLVLLRLLLLHLLLLALRARCLSAEPGQGAQTWARFARAPAPEAAGLLHDTFPDGFLWAVGSAAYQTEGGWRQHGKGASIWDTFTHHSGAAPSDSPIVVAPSGAPSPPLSSTGDVASDSYNNVYRDTEGLRELGVTHYRFSISWARVLPNGTAGTPNREGLRYYRRLLERLRELGVQPVVTLYHWDLPQRLQDTYGGWANRALADHFRDYAELCFRHFGGQVKYWITIDNPYVVAWHGYATGRLAPGVRGSSRLGYLVAHNLLLAHAKVWHLYNTSFRPTQGGRVSIALSSHWINPRRMTDYNIRECQKSLDFVLGWFAKPIFIDGDYPESMKNNLSSLLPDFTESEKRLIRGTADFFALSFGPTLSFQLLDPNMKFRQLESPNLRQLLSWIDLEYNHPPIFIVENGWFVSGTTKRDDAKYMYYLKKFIMETLKAIRLDGVDVIGYTAWSLMDGFEWHRGYSIRRGLFYVDFLSQDKELLPKSSALFYQKLIEDNGFPPLPENQPLEGTFPCDFAWGVVDNYVQVDTTLSQFTDPNVYLWDVHHSKRLIKVDGVVAKKRKPYCVDFSAIRPQITLLREMRVTHFRFSLDWALILPLGNQTQVNHTVLHFYRCMISELVHANITPVVALWQPAAPHQGLPHALAKHGAWENPHTALAFADYANLCFKELGHWVNLWITMNEPNTRNMTYRAGHHLLRAHALAWHLYDDKFRAAQKGKISIALQADWIEPACPFSQNDKEVAERVLEFDIGWLAEPIFGSGDYPRVMRDWLNQKNNFLLPYFTEDEKKLVRGSFDFLAVSHYTTILVDWEKEDPMKYNDYLEVQEMTDITWLNSPSQVAVVPWGLRKVLNWLRFKYGDLPMYVTANGIDDDPHAEQDSLRIYYIKNYVNEALKAYVLDDINLCGYFAYSLSDRSAPKSGFYRYAANQFEPKPSMKHYRRIIDSNGFLGSGTLGRFCPEEYTVCTECGFFQTRKSLLVFISFLVFTFIISLALIFHYSKKGQRSYK
modifications: HA tag
- expression or cleavage of PARP [1]: No changes
- p53 levels [1]: increase
- expression or cleavage of PARP (p53 levels in HEK 293): No changes
- p53 levels (p53 levels in HEK 293): reduce
- effect on HEK 293 growth (colony assay) [2]: no effect
- proliferation slower than controls (MTT assay) [3]: up to 6 fold
- number and size of surviving colonies [4]: significantly reduced
- reduction of number and size of surviving colonies (MCF-7): 84%
- reduction of number and size of surviving colonies (MDA-MB-231): 72%
- interaction with the IGF-1 receptor (co-immunoprecipitation) (IGF-1R): interaction
- phosphorylation of IGF-1R, IRS-1, AKT1, GSK3β, ERK-1 and -2 [5]: reduced phosphorylation
- tumor growth (tumor size) (Panc1 cells): significant dose-response arrest of tumor growth
- effect on IGF-1 pathway phosphorylation [6]: only minor effects
- effect on IGF-1 pathway phosphorylation [7]: Smaller effects
